Source: article PMC9352680, “A comprehensive thermodynamic model for RNA binding by the Saccharomyces cerevisiae Pumilio protein PUF4”
Where a chain is given by its changes, count along the chain named. Names may count otherwise.

T1: PUF4 RNA-binding domain (Saccharomyces cerevisiae, UniProt P25339 537-888)
T1 sequence: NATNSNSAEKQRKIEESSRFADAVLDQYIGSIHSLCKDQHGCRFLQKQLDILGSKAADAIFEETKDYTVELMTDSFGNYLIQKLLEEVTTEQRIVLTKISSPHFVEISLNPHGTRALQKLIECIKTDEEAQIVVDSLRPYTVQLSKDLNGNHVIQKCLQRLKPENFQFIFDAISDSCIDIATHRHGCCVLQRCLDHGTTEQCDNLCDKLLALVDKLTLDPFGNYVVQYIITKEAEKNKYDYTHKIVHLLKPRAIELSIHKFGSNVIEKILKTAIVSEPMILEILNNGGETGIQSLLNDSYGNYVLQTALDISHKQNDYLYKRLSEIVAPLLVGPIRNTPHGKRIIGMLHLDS

B1: Id_ii_S2_P4E.3_K4.2_C4.2_[C-2A]_[T-1A]_H4.2_A4.1_F4.1_T4.2_[G10C]_[T11A] (ssRNA)
RNA: UUUGAUUAAUAUGAUAUCGUUCUUUCUAAUAUAUAUUACAUUCUUUCUCGAUAUCAUAUUAAUCUUU
B2: Id_ii_S2_P4E.3_K4.2_C4.2_[T-1G]_H4.2_A4.1_F4.1_T4.2_[G10A]_[T11A] (ssRNA)
RNA: B1 RNA with A28C, A29G, C39A
B3: Id_ii_S2_P4E.3_K4.2_C4.2_[T-1A]_H4.2_A4.1_F4.1_T4.2 (ssRNA)
RNA: B1 RNA with A28C, C39G, A40U
B4: Id_ii_S2_P4E.3_K4.2_C4.2_[T-1C]_H4.2_A4.1_F4.1_T4.2_[G10C]_[T11A] (ssRNA)
RNA: B1 RNA with A28C, A29C
B5: Id_ii_S2_P4E.3_K4.2_C4.2_[T-1A]_H4.2_A4.1_F4.1_T4.2_[G10A]_[T11C] (ssRNA)
RNA: B1 RNA with A28C, C39A, A40C
B6: Id_ii_S2_P4E.3_K4.2_C4.2_[T-1C]_H4.2_A4.1_F4.1_T4.2_[G10A] (ssRNA)
RNA: B1 RNA with A28C, A29C, C39A, A40U
B7: Id_ii_S2_P4E.3_K4.2_C4.2_[T-1A]_H4.2_A4.1_F4.1_T4.2_[G10A]_[T11A] (ssRNA)
RNA: B1 RNA with A28C, C39A
B8: Id_ii_S2_P4E.3_K4.2_C4.2_[C-2A]_H4.2_A4.1_F4.1_T4.2_[G10A]_[T11C] (ssRNA)
RNA: B1 RNA with A29U, C39A, A40C
B9: Id_ii_S2_P4E.3_K4.2_C4.2_[T-1G]_H4.2_A4.1_F4.1_T4.2_[G10T] (ssRNA)
RNA: B1 RNA with A28C, A29G, C39U, A40U
B10: Id_ii_S2_P4E.3_K4.2_C4.2_[T-1C]_H4.2_A4.1_F4.1_T4.2_[G10T] (ssRNA)
RNA: B1 RNA with A28C, A29C, C39U, A40U
B11: Id_ii_S2_P4E.3_K4.2_C4.2_H4.2_A4.1_F4.1_T4.2_[G10C]_[T11A] (ssRNA)
RNA: B1 RNA with A28C, A29U
B12: Id_ii_S2_P4E.3_K4.2_C4.2_H4.2_A4.1_F4.1_T4.2_[G10A]_[T11C] (ssRNA)
RNA: B1 RNA with A28C, A29U, C39A, A40C
B13: Id_ii_S2_P4E.3_K4.2_C4.2_[C-2A]_[T-1A]_H4.2_A4.1_F4.1_T4.2_[G10A]_[T11G] (ssRNA)
RNA: B1 RNA with C39A, A40G
B14: Id_ii_S2_P4E.3_K4.2_C4.2_[C-2A]_H4.2_A4.1_F4.1_T4.2_[G10C] (ssRNA)
RNA: B1 RNA with A29U, A40U
B15: Id_ii_S2_P4E.3_K4.2_C4.2_[T-1G]_H4.2_A4.1_F4.1_T4.2_[G10A]_[T11C] (ssRNA)
RNA: B1 RNA with A28C, A29G, C39A, A40C
B16: Id_ii_S2_P4E.3_K4.2_C4.2_[T-1A]_H4.2_A4.1_F4.1_T4.2_[G10C]_[T11C] (ssRNA)
RNA: B1 RNA with A28C, A40C
B17: Id_ii_S2_P4E.3_K4.2_C4.2_[C-2A]_H4.2_A4.1_F4.1_T4.2_[G10T]_[T11G] (ssRNA)
RNA: B1 RNA with A29U, C39U, A40G
B18: Id_ii_S2_P4E.3_K4.2_C4.2_[T-1C]_H4.2_A4.1_F4.1_T4.2_[G10C]_[T11G] (ssRNA)
RNA: B1 RNA with A28C, A29C, A40G
B19: Id_ii_S2_P4E.3_K4.2_C4.2_[C-2A]_[T-1A]_H4.2_A4.1_F4.1_T4.2_[G10A]_[T11A] (ssRNA)
RNA: B1 RNA with C39A
B20: Id_ii_S2_P4E.3_K4.2_C4.2_[C-2A]_H4.2_A4.1_F4.1_T4.2_[G10C]_[T11C] (ssRNA)
RNA: B1 RNA with A29U, A40C
B21: Id_ii_S2_P4E.3_K4.2_C4.2_[T-1A]_H4.2_A4.1_F4.1_T4.2_[G10A] (ssRNA)
RNA: B1 RNA with A28C, C39A, A40U
B22: Id_ii_S2_P4E.3_K4.2_C4.2_[T-1A]_H4.2_A4.1_F4.1_T4.2_[G10C]_[T11A] (ssRNA)
RNA: B1 RNA with A28C
B23: Id_ii_S2_P4E.3_K4.2_C4.2_[C-2A]_[T-1A]_H4.2_A4.1_F4.1_T4.2_[G10C] (ssRNA)
RNA: B1 RNA with A40U
B24: Id_ii_S2_P4E.3_K4.2_C4.2_[T-1A]_H4.2_A4.1_F4.1_T4.2_[G10A]_[T11G] (ssRNA)
RNA: B1 RNA with A28C, C39A, A40G
B25: Id_ii_S2_P4E.3_K4.2_C4.2_[T-1C]_H4.2_A4.1_F4.1_T4.2_[G10A]_[T11A] (ssRNA)
RNA: B1 RNA with A28C, A29C, C39A
B26: Id_ii_S2_P4E.3_K4.2_C4.2_[T-1A]_H4.2_A4.1_F4.1_T4.2_[G10C] (ssRNA)
RNA: B1 RNA with A28C, A40U
B27: Id_ii_S2_P4E.3_K4.2_C4.2_H4.2_A4.1_F4.1_T4.2_[G10T] (ssRNA)
RNA: B1 RNA with A28C, A29U, C39U, A40U
B28: Id_ii_S2_P4E.3_K4.2_C4.2_H4.2_A4.1_F4.1_T4.2_[G10A] (ssRNA)
RNA: B1 RNA with A28C, A29U, C39A, A40U
B29: Id_ii_S2_P4E.3_K4.2_C4.2_[T-1G]_H4.2_A4.1_F4.1_T4.2_[G10A]_[T11G] (ssRNA)
RNA: B1 RNA with A28C, A29G, C39A, A40G
B30: Id_ii_S2_P4E.3_K4.2_C4.2_[T-1C]_H4.2_A4.1_F4.1_T4.2_[G10T]_[T11G] (ssRNA)
RNA: B1 RNA with A28C, A29C, C39U, A40G
B31: Id_ii_S2_P4E.3_K4.2_C4.2_[C-2A]_H4.2_A4.1_F4.1_T4.2_[G10T]_[T11C] (ssRNA)
RNA: B1 RNA with A29U, C39U, A40C
B32: Id_ii_S2_P4E.3_K4.2_C4.2_[T-1A]_H4.2_A4.1_F4.1_T4.2_[G10C]_[T11G] (ssRNA)
RNA: B1 RNA with A28C, A40G
B33: Id_ii_S2_P4E.3_K4.2_C4.2_[T-1A]_H4.2_A4.1_F4.1_T4.2_[T11G] (ssRNA)
RNA: B1 RNA with A28C, C39G, A40G
B34: Id_ii_S2_P4E.3_K4.2_C4.2_[T-1C]_H4.2_A4.1_F4.1_T4.2_[G10T]_[T11A] (ssRNA)
RNA: B1 RNA with A28C, A29C, C39U
B35: Id_ii_S2_P4E.3_K4.2_C4.2_[T-1A]_H4.2_A4.1_F4.1_T4.2_[G10T] (ssRNA)
RNA: B1 RNA with A28C, C39U, A40U
B36: Id_ii_S2_P4E.3_K4.2_C4.2_H4.2_A4.1_F4.1_T4.2_[G10C]_[T11G] (ssRNA)
RNA: B1 RNA with A28C, A29U, A40G
B37: Id_ii_S2_P4E.3_K4.2_C4.2_[C-2A]_H4.2_A4.1_F4.1_T4.2_[G10C]_[T11G] (ssRNA)
RNA: B1 RNA with A29U, A40G
B38: Id_ii_S2_P4E.3_K4.2_C4.2_[C-2A]_H4.2_A4.1_F4.1_T4.2_[G10C]_[T11A] (ssRNA)
RNA: B1 RNA with A29U
B39: Id_ii_S2_P4E.3_K4.2_C4.2_H4.2_A4.1_F4.1_T4.2_[T11C] (ssRNA)
RNA: B1 RNA with A28C, A29U, C39G, A40C
B40: Id_ii_S2_P4E.3_K4.2_C4.2_H4.2_A4.1_F4.1_T4.2_[G10T]_[T11C] (ssRNA)
RNA: B1 RNA with A28C, A29U, C39U, A40C
B41: Id_ii_S2_P4E.3_K4.2_C4.2_[C-2A]_[T-1A]_H4.2_A4.1_F4.1_T4.2_[G10T] (ssRNA)
RNA: B1 RNA with C39U, A40U

biological target: T1, PUF4 RNA-binding domain; test: Mg; RNA-MaP; 20 mM Na-HEPES pH 7.4, 30 mM KOAc, 0.75 mM MgCl2, 0.1% Tween-20, 5% glycerol, 0.1 mg/mL BSA, 2 mM DTT; 25 C; 0.0125-409.6 nM protein; settings: tags: N-His6-TEV cleaved; C-SNAP kept, Cy3B-labelled; label: tethered on chip by stalled RNA polymerase

Going from UCUCUUUGUCUUAUUCUCUCUU (ssRNA) [Ib_S1_P5E.1_K5.1_C5.1_H5.1_[A4C]_A5.1_F5.1_[A10C]_T5.1] to UCUCUUUGUCUUAUUUUCUCUU (ssRNA) [Ib_S1_P5E.1_K5.1_C5.1_H5.1_[A4C]_A5.1_F5.1_[A10T]_T5.1], the Kd falls from 1350 nM to 775 nM (1.7-fold). The second binds more tightly here.

First: B1
Second: B2
The Kd of the first is 7.8-fold higher: 160 nM for the first, 20.5 nM for the second. The second binds more tightly here.

B3 and B4 are within 1.5-fold of each other in Kd: 8.89 nM for the first, 9.95 nM for the second.

Going from B5 to B6, the Kd falls from 17.8 nM to 7.32 nM (2.4-fold).

B7 and B8 are within 1.5-fold of each other in Kd: 37.6 nM for the first, 40.9 nM for the second.

First: B9
Second: B10
The Kd of the first is 2-fold higher: 7.25 nM for the first, 3.61 nM for the second.

First: B11
Second: B12
The Kd of the first is 1.7-fold lower: 8.35 nM for the first, 14 nM for the second. The first binds more tightly here.

Compared with B13, B14 is 47-fold lower in Kd: 661 nM for the first, 14.2 nM for the second. The second binds more tightly here.

Going from B15 to B16, the Kd falls from 22.8 nM to 10.3 nM (2.2-fold).

Compared with B17, B18 is 2.7-fold lower in Kd: 26.1 nM for the first, 9.56 nM for the second. The second binds more tightly here.

Going from B19 to B20, the Kd falls from 233 nM to 12.8 nM (18-fold).

Compared with B21, B22 is 1.6-fold higher in Kd: 10.1 nM for the first, 16.3 nM for the second. The first binds more tightly here.

First: B23
Second: B24
The Kd of the first is 10-fold lower: 35.9 nM for the first, 360 nM for the second.

Going from B25 to B26, the Kd falls from 12.2 nM to 7.44 nM (1.6-fold).

Going from B27 to B28, the Kd rises from 3.81 nM to 9.82 nM (2.6-fold).

Compared with B29, B30 is 45-fold lower in Kd: 266 nM for the first, 5.86 nM for the second.

First: B31
Second: B32
The Kd of the first is 2.7-fold lower: 12.2 nM for the first, 32.8 nM for the second.

First: B33
Second: B34
The Kd of the first is 2.7-fold higher: 46.4 nM for the first, 17 nM for the second.

Compared with B35, B36 is 2.3-fold higher in Kd: 8.24 nM for the first, 18.8 nM for the second. The first binds more tightly here.

B37 and B38 are within 1.5-fold of each other in Kd: 25.3 nM for the first, 18.2 nM for the second.

Compared with B39, B40 is 1.6-fold lower in Kd: 7.25 nM for the first, 4.61 nM for the second. The second binds more tightly here.

Compared with B41, UCUCUUUGUUUUAUUCUCUCUU (ssRNA) [Ib_S1_P5E.1_K5.1_C5.1_H5.1_[A4T]_A5.1_F5.1_[A10C]_T5.1] is 4.2-fold higher in Kd: 214 nM for the first, 899 nM for the second. The first binds more tightly here.

In the case of UCUCUUUGUUUUAUUGUCUCUU (ssRNA) [Ib_S1_P5E.1_K5.1_C5.1_H5.1_[A4T]_A5.1_F5.1_[A10G]_T5.1], the Kd is reported as 378 nM.
